Reference: patent US20230285589A1, “LIPOSOME COMPLEX FOR CANCER TREATMENT, COMPRISING NOVEL CD47 BINDER AND POLYNUCLEOTIDE” (priority 2020, published 2023)

Key:
[1] = 5'-nucleotidase preferred substrate (Km), dTMP; type: biochemical; details: according to Table 4
[2] = target: recombinant CD47 protein (Homo sapiens, UniProt Q08722); experiment: SPR, CD47 conjugated to CM5 chip; details: 250 RU CD47, 1:1 binding model
Procedure: Specifically, the recombinant CD47 protein was conjugated to the surface of the CM5 chip by a target SPR reaction of 250 RU through an EDC-NHS reaction to be used, and for HBS-P, the sensogram obtained through a process of association for 3 minutes and dissociation for 10 minutes at a flow rate of 30 μL/minutes was analyzed with the BiaEvaluation software using a 1:1 binding model and global fitting.

Sequence of recombinant CD47 protein (Q08722 19-323): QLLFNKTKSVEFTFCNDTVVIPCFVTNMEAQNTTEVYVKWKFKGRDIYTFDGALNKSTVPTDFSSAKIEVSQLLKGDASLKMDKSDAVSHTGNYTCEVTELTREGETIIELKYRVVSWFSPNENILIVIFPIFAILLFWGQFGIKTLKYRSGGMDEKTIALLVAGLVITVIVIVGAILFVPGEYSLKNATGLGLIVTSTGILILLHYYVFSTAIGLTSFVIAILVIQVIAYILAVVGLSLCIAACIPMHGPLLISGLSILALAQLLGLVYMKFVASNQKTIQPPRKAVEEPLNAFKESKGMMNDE

Molecule	affinity for dTMP, times lower compared to T001 [1] [times]	ka [2] [M⁻¹ s⁻¹]	kd [2] [s⁻¹]
NT5M: Human mitochondrial 5′-deoxyribonucleotidase (SEQ ID NO: 32) (protein, NT5M) MGGRALRVLVDMDGVLADFEGGFLRKFRARFPDQPFIALEDRRGFWVSEQYGRLRPGLSEKAISIWESKNFFFELEPLPGAVEAVKEMASLQNTDVFICTSPIKMFKYCPYEKYAWVEKYFGPDFLEQIVLTRDKTVVSADLLIDDRPDITGAEPTPSWEHVLFTACHNQHLQLQPPRRRLHSWADDWKAILDSKRPC	30		
SV4: CD47 binder of SEQ ID NO: 2; SV1 with lysines at positions 11 and 104 substituted with leucine (protein, CD47 binder SV4) MEEELQIIQPDLSVSVAAGESAILHCTITSLFPVGPIQWFRGAGPARVLIYNQRQGPFPRVTTVSETTKRENMDFSISISNITPADAGTYYCIKFRKGSPDTEFLSGAGTELSVRAKPS		164000	0.000275
